Experimental findings from patent US20140087995A1 (published 2014) are described below.

First the molecules themselves.
T1: human calcitonin receptor (human, UniProt P30988 25-474)
T1 sequence (looked up): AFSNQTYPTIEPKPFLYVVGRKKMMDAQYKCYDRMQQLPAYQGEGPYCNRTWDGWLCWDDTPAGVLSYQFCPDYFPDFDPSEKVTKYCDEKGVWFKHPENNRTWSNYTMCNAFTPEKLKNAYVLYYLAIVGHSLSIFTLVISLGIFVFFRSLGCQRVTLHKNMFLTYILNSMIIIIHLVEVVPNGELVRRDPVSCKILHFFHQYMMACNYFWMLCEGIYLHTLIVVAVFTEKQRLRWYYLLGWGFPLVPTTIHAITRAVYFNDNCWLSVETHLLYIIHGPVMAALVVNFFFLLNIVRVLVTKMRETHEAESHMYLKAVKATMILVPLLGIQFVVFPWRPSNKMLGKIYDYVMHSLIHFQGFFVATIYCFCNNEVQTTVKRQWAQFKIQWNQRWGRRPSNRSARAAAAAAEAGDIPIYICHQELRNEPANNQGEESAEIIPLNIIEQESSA

T2: human amylin receptor (amylin 3(a) receptor: human calcitonin receptor coexpressed with RAMP-3) (human, UniProt P30988 25-474; O60896 24-148)
T2 sequence (looked up) 1: T1 sequence (looked up)
T2 sequence (looked up) 2: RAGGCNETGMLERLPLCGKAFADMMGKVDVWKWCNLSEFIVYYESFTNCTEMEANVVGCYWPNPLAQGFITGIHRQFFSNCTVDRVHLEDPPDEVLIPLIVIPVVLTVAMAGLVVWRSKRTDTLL

B1: N^ε1-[(4S)-4-carboxy-4-(13-carboxytridecanoylamino)butanoyl]-[Arg17,Pro21,Pro27,His34]-h-amylin (peptide)
peptide: K([γGlu-C14 diacid])CNTATCATQRLANFLRHSSPNFGAIPSSTNVGHNTY-NH2
modifications: disulfide 2-7; N-terminus assumed
SMILES: CC[C@H](C)[C@H](NC(=O)[C@H](C)NC(=O)CNC(=O)[C@H](Cc1ccccc1)NC(=O)[C@H](CC(N)=O)NC(=O)[C@@H]1CCCN1C(=O)[C@H](CO)NC(=O)[C@H](CO)NC(=O)[C@H](Cc1c[nH]cn1)NC(=O)[C@H](CCCNC(=N)N)NC(=O)[C@H](CC(C)C)NC(=O)[C@H](Cc1ccccc1)NC(=O)[C@H](CC(N)=O)NC(=O)[C@H](C)NC(=O)[C@H](CC(C)C)NC(=O)[C@H](CCCNC(=N)N)NC(=O)[C@H](CCC(N)=O)NC(=O)[C@@H](NC(=O)[C@H](C)NC(=O)[C@@H]1CSSC[C@H](NC(=O)[C@@H](N)CCCCNC(=O)CC[C@H](NC(=O)CCCCCCCCCCCCC(=O)O)C(=O)O)C(=O)N[C@@H](CC(N)=O)C(=O)N[C@@H]([C@@H](C)O)C(=O)N[C@@H](C)C(=O)N[C@@H]([C@@H](C)O)C(=O)N1)[C@@H](C)O)C(=O)N1CCC[C@H]1C(=O)N[C@@H](CO)C(=O)N[C@@H](CO)C(=O)N[C@H](C(=O)N[C@@H](CC(N)=O)C(=O)N[C@H](C(=O)NCC(=O)N[C@@H](Cc1c[nH]cn1)C(=O)N[C@@H](CC(N)=O)C(=O)N[C@H](C(=O)N[C@@H](Cc1ccc(O)cc1)C(N)=O)[C@@H](C)O)C(C)C)[C@@H](C)O
B2: N^ε1-[(4S)-4-carboxy-4-(15-carboxypentadecanoylamino)butanoyl]-[Arg17,Pro21,Pro27,His34]-h-amylin (peptide)
peptide: K([γGlu-C16 diacid])CNTATCATQRLANFLRHSSPNFGAIPSSTNVGHNTY-NH2
modifications: disulfide 2-7; N-terminus assumed
SMILES: CC[C@H](C)[C@H](NC(=O)[C@H](C)NC(=O)CNC(=O)[C@H](Cc1ccccc1)NC(=O)[C@H](CC(N)=O)NC(=O)[C@@H]1CCCN1C(=O)[C@H](CO)NC(=O)[C@H](CO)NC(=O)[C@H](Cc1c[nH]cn1)NC(=O)[C@H](CCCNC(=N)N)NC(=O)[C@H](CC(C)C)NC(=O)[C@H](Cc1ccccc1)NC(=O)[C@H](CC(N)=O)NC(=O)[C@H](C)NC(=O)[C@H](CC(C)C)NC(=O)[C@H](CCCNC(=N)N)NC(=O)[C@H](CCC(N)=O)NC(=O)[C@@H](NC(=O)[C@H](C)NC(=O)[C@@H]1CSSC[C@H](NC(=O)[C@@H](N)CCCCNC(=O)CC[C@H](NC(=O)CCCCCCCCCCCCCCC(=O)O)C(=O)O)C(=O)N[C@@H](CC(N)=O)C(=O)N[C@@H]([C@@H](C)O)C(=O)N[C@@H](C)C(=O)N[C@@H]([C@@H](C)O)C(=O)N1)[C@@H](C)O)C(=O)N1CCC[C@H]1C(=O)N[C@@H](CO)C(=O)N[C@@H](CO)C(=O)N[C@H](C(=O)N[C@@H](CC(N)=O)C(=O)N[C@H](C(=O)NCC(=O)N[C@@H](Cc1c[nH]cn1)C(=O)N[C@@H](CC(N)=O)C(=O)N[C@H](C(=O)N[C@@H](Cc1ccc(O)cc1)C(N)=O)[C@@H](C)O)C(C)C)[C@@H](C)O
B3: N{-1}-[(4S)-4-carboxy-4-(19-carboxynonadecanoylamino)butanoyl]-Gly[Arg1,His14,Arg17,Pro21,Pro27]-h-amylin (peptide)
peptide: {C20 diacid-γGlu}-GRCNTATCATQRLAHFLRHSSPNFGAIPSSTNVGSNTY-NH2
modifications: disulfide 3-8
SMILES: CC[C@H](C)[C@H](NC(=O)[C@H](C)NC(=O)CNC(=O)[C@H](Cc1ccccc1)NC(=O)[C@H](CC(N)=O)NC(=O)[C@@H]1CCCN1C(=O)[C@H](CO)NC(=O)[C@H](CO)NC(=O)[C@H](Cc1c[nH]cn1)NC(=O)[C@H](CCCNC(=N)N)NC(=O)[C@H](CC(C)C)NC(=O)[C@H](Cc1ccccc1)NC(=O)[C@H](Cc1c[nH]cn1)NC(=O)[C@H](C)NC(=O)[C@H](CC(C)C)NC(=O)[C@H](CCCNC(=N)N)NC(=O)[C@H](CCC(N)=O)NC(=O)[C@@H](NC(=O)[C@H](C)NC(=O)[C@@H]1CSSC[C@H](NC(=O)[C@H](CCCNC(=N)N)NC(=O)CNC(=O)CC[C@H](NC(=O)CCCCCCCCCCCCCCCCCCC(=O)O)C(=O)O)C(=O)N[C@@H](CC(N)=O)C(=O)N[C@@H]([C@@H](C)O)C(=O)N[C@@H](C)C(=O)N[C@@H]([C@@H](C)O)C(=O)N1)[C@@H](C)O)C(=O)N1CCC[C@H]1C(=O)N[C@@H](CO)C(=O)N[C@@H](CO)C(=O)N[C@H](C(=O)N[C@@H](CC(N)=O)C(=O)N[C@H](C(=O)NCC(=O)N[C@@H](CO)C(=O)N[C@@H](CC(N)=O)C(=O)N[C@H](C(=O)N[C@@H](Cc1ccc(O)cc1)C(N)=O)[C@@H](C)O)C(C)C)[C@@H](C)O
notes: 38 residues: Gly added before position 1 of human amylin; also called compound 99
B4: N^ε1-[(4S)-4-carboxy-4-(17-carboxyheptadecanoylamino)butanoyl]-[Arg17,Pro21,Pro27,His34]-h-amylin (peptide)
peptide: K([γGlu-C18 diacid])CNTATCATQRLANFLRHSSPNFGAIPSSTNVGHNTY-NH2
modifications: disulfide 2-7; N-terminus assumed
SMILES: CC[C@H](C)[C@H](NC(=O)[C@H](C)NC(=O)CNC(=O)[C@H](Cc1ccccc1)NC(=O)[C@H](CC(N)=O)NC(=O)[C@@H]1CCCN1C(=O)[C@H](CO)NC(=O)[C@H](CO)NC(=O)[C@H](Cc1c[nH]cn1)NC(=O)[C@H](CCCNC(=N)N)NC(=O)[C@H](CC(C)C)NC(=O)[C@H](Cc1ccccc1)NC(=O)[C@H](CC(N)=O)NC(=O)[C@H](C)NC(=O)[C@H](CC(C)C)NC(=O)[C@H](CCCNC(=N)N)NC(=O)[C@H](CCC(N)=O)NC(=O)[C@@H](NC(=O)[C@H](C)NC(=O)[C@@H]1CSSC[C@H](NC(=O)[C@@H](N)CCCCNC(=O)CC[C@H](NC(=O)CCCCCCCCCCCCCCCCC(=O)O)C(=O)O)C(=O)N[C@@H](CC(N)=O)C(=O)N[C@@H]([C@@H](C)O)C(=O)N[C@@H](C)C(=O)N[C@@H]([C@@H](C)O)C(=O)N1)[C@@H](C)O)C(=O)N1CCC[C@H]1C(=O)N[C@@H](CO)C(=O)N[C@@H](CO)C(=O)N[C@H](C(=O)N[C@@H](CC(N)=O)C(=O)N[C@H](C(=O)NCC(=O)N[C@@H](Cc1c[nH]cn1)C(=O)N[C@@H](CC(N)=O)C(=O)N[C@H](C(=O)N[C@@H](Cc1ccc(O)cc1)C(N)=O)[C@@H](C)O)C(C)C)[C@@H](C)O

Numbered stars: 1 amine (or outer) side, 2 acyl side, 3 side chain; on linkers, the order of the positions; unused ones are H or OH. Bridge positions count the residues as written; N and C are the ends. Side chains are listed from the residue outwards. Ends that are not written are not given here. * marks the point of attachment. C20 diacid = O=C(O)CCCCCCCCCCCCCCCCCCC(=O)*; C18 diacid = O=C(O)CCCCCCCCCCCCCCCCC(=O)*; C16 diacid = O=C(O)CCCCCCCCCCCCCCC(=O)*; γGlu = O=C(O)[C@H](CCC(=O)[*:2])N[*:1]; C14 diacid = O=C(O)CCCCCCCCCCCCC(=O)*

In one assay the target is T1, human calcitonin receptor. The experiment in a line: cell-based or functional assay.
Consider B1, for which the “Ratio hCT/hAmylin funct.” value turned out to be 38.8 and the “hCTR funct. EC50 (pM)” value stood at 1090 pM.

For the molecule B2, the “Ratio hCT/hAmylin funct.” value is 65.1 and the “hCTR funct. EC50 (pM)” value stood at 2210 pM.

For B3, the “Ratio hCT/hAmylin funct.” value came to 10 and the “hCTR funct. EC50 (pM)” value amounted to 818 pM.

On to B4, for which the “Ratio hCT/hAmylin funct.” value worked out at 60.9 and the “hCTR funct. EC50 (pM)” value came out at 5850 pM.

The target in another assay is T2, human amylin receptor (amylin 3(a) …). In words: cell-based or functional assay.
As for B1, the “hAmylin-R funct. EC50 (pM)” value came to 28 pM.

In the case of B2, the “hAmylin-R funct. EC50 (pM)” value was determined as 34 pM.

Regarding B3, the “hAmylin-R funct. EC50 (pM)” value is 82 pM.

For B4, the “hAmylin-R funct. EC50 (pM)” value worked out at 96 pM.
